Measured values as given in publication PMC3276575, “Structural and Functional Insights into the Pilotin-Secretin Complex of the Type II Secretion System” (PLoS Pathogens, 2012).
Numbering of substitutions follows the chain as printed. Ends that are not written are not given here.

Assays:
pilotin (OutS) = assay: 3JHNHA NMR spectra of secretin peptide with pilotin; format: binding, Dickeya dadantii; details: presence of pilotin, 15°C
Method: (§1) Samples of 0.05 to 0.5 mM labelled proteins in 90% H2O, 10% ^2H2O containing 20 mM Tris (pH 7.0) and 150 mM NaCl. All NMR spectra were acquired at 15°C using Bruker Avance 700- and 600-MHz spectrometers. Assignment of ^1H, ^15N, and ^13C resonances of the backbone was achieved by analysis of HNCACB, CBCA (CO)NH triple resonance experiments.
Supplementary file ppat.1002531.s005.doc: Figure S5 3JHNHA spectra of ^15N-labelled secretin peptide (OutD^680–710) in the absence (red) and presence (black) of pilotin (OutS). The spectra were acquired using a Bruker 700 MHz spectrophotometer at measured at 15°C. […] The 3JHNHA coupling constant was calculated according to measurement of the diagonal-peak to cross-peak intensity ratio in a 3D ^15N separated quantitative J-correlation spectra. […] (DOC) Click here for additional data file.

[1] = target: T1, non-lipidated pilotin OutS (residues 26 to 132) of Dickeya dadantii (Dickeya dadantii, UniProt Q01567 26-132, disulfide bridge Cys 61-Cys 115); assay: NMR titration; 1H-15N HSQC of 15N-labelled pilotin (100 µM), unlabelled secretin peptides titrated in; 15°C, 20 mM Tris pH 7.0, 150 mM NaCl; details: both partners purified
T1 chain: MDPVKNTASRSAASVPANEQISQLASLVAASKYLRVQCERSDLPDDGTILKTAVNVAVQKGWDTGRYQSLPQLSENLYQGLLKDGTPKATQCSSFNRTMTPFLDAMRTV

non-lipidated OutS = assay: GST pull-down assay; format: binding, Dickeya dadantii
Method: (§2) Figure S6. Reducing environment prevents interaction of OutS with the C-terminal peptide of OutD. […] Soluble cell extracts of E. coli BL21(DE3) producing either GST alone (lane 1) or GST-OutD649-710 (lanes 2 and 3) were combined with a periplasmic extract containing non-lipidated OutS, then loaded on Glutathione Agarose for 1 h and washed. The incubations were performed in either TBS (lanes 1 and 2) or TBS with 5 mM DTT (lane 3). Bound proteins were eluted with Laemmli sample buffer, separated by Tricine-SDS-PAGE and either stained (upper panel) or probed with OutS antibodies (lower panel). Asterisk indicates a degradation product of GST-OutD649-710. […] The region coding for mature OutS (residues […]) was fused to the C-terminus of T18 subunit of Cya (pUT18-OutS) and the region coding for GST-OutD649-710 was fused to the C-terminus of T25 subunit of Cya (pKT25-GST-Dct). When pUT18-OutS and pKT25-GST-Dct were coexpressed in E. coli DHP1 cya strain, the coresponding fusion proteins were well produced as shown by immunoblotting with anti-OutS and anti-GST antibodies, respectively. […] is indicated by a dot and T25-GST-Dct by a triangle.

OutS = assay: Bacterial two-hybrid assay; format: cell-based, Dickeya dadantii
Method: as §2

[2] = Cleavage of secretin peptide during lengthy NMR experiments; format: physicochemical; details: during more lengthy NMR experiments; 20 mM Tris pH 7.0, 150 mM NaCl, 15°C
Method: (§3) Supplementary file ppat.1002531.s004.doc: Figure S4 The C-terminus of the 62 residue secretin peptide ([…]) is unstructured. ^1H-^15N HSQC spectra of recombinantly produced ^15N-labelled secretin peptide (70 µM peptide in 20 mM Tris pH 7.0 with 150 mM NaCl at 15°C) acquired using a Bruker 700 MHz spectrophotometer. […] The spectra are cleaner than those shown previously (Figure S2 and S3) because the spectra were acquired quickly. […] (DOC) Click here for additional data file.

pilotin = details: ref [11]; cited from earlier work
Description: This secretin peptide was produced with ^15N-label as a fusion to GST and then released with PreScision protease.

[3] = NMR 1H-15N HSQC of free secretin peptide (disorder); format: physicochemical; details: 20 mM Tris pH 7.0, 150 mM NaCl, 15°C, 700 MHz
Method: as §1, §3

[4] = target: T1, non-lipidated pilotin OutS (residues 26 …); assay: other fluorescence titration; quenching of the single tryptophan of pilotin (1 µM) on titration with 50 µM secretin peptide in 1 µM pilotin; excitation 290 nm, signal at 340 nm, 15°C; details: both partners purified
secretin = assay: Effect of pilotin binding-surface mutations on secretin binding; design: species or system Dickeya dadantii; details: in words
Description: The pET-20b(+) plasmid expressing non-lipidated OutS (residues 26 to 132) fused to N-terminal PelB signal peptide has been constructed previously at a manner as the sequence of mature non-lipidated OutS after cleavage by the signal peptidase LepB is: MDP^26VKNT etc. To fuse a C-terminal 6His tag to non-lipidated OutS, SalI site was introduced at the end of outS sequence by using the primer (5′-ctt gac gcc atg cgc acc gtc gac tga ggg gga agc aac tgc) and the reverse complementary one (mutated bases are underlined). Then, by SalI/XhoI digestion the sequence coding for non-lipidated OutS was fused with that coding for 6His. Mutants of OutS were made using Strategene QuikChange and confirmed by sequencing.
Fluorescence data were collected using a Jasco FP-6300 Spectrofluorometer. To avoid exciting tyrosyl side chains, an excitation wavelength of 290 nm was used. Emission spectra were recorded at 15°C in steps of 2 nm from 310 to 400 nm. The fluorescence signal at 340 nm was plotted to calculate K d. Pilotin spectra was measured at 1 µM. 50 µM of secretin peptide prepared in 1 µM pilotin was titrated into pilotin solution (for more information see also Table S1 and reference).

OutD^680–710: 15N-labelled secretin peptide (OutD680–710) (DNNTLRLSGGNTYTFRQVQSSISDFYKPEGR; also: 15N-labelled; UniProt Q01565 680-710, looked up, fragment)
residues of secretin peptide that become helical on binding (pilotin (OutS)): at least four

B1: 62 residue C-terminal secretin peptide (OutD residues 649-710) (peptide)
chain: DPGQFQEASINKYRSFNNEQQQQRGEGNGVLDNNTLRLSGGNTYTFRQVQSSISDFYKPEGR
notes: secretin OutD, Dickeya dadantii, C-terminal 62 residues (649-710); 15N-labelled in one titration, unlabelled in the other; The peptide is slowly cleaved; also called 62 residue secretin peptide; OutD^648–710; source: E. coli BL21(DE3), purified as GST fusion, released with PreScision protease; not shown: GST, N-terminal, cleaved
stoichiometry N [1]: 1

B2: GST-OutD649-710: C-terminal segment of OutD fused to GST; in two-hybrid fused to C-terminus of T25 subunit of Cya (protein)
chain: B1 chain
modifications: not fully specified (N-terminus); also: fused to GST
notes: C-terminal segment of OutD fused to GST; in two-hybrid fused to C-terminus of T25 subunit of Cya
binding in GST pull-down (non-lipidated OutS; reducing conditions, TBS with 5 mM DTT, 1 h on Glutathione Agarose): does not bind
colony colour in bacterial two-hybrid assay (OutS; MacConkey-maltose agar, known interacting couple used as positive control): white colonies
interaction in bacterial two-hybrid assay (OutS; reducing conditions of the bacterial cytoplasm, T25/T18 fusions, E. coli DHP1 cya, MacConkey-maltose agar): does not interact

B3: 62 residue secretin peptide: C-terminal 62 residues of the secretin, produced as a fusion to GST and released with PreScision protease (protein)
chain: B1 chain
modifications: left off: GST, N-terminal, cleaved
notes: C-terminal 62 residues of the secretin, produced as a fusion to GST and released with PreScision protease
cleavage of peptide [2]: slowly cleaved
binding to pilotin (pilotin): bound to the pilotin
structure in solution (dispersion of backbone amides) [3]: intrinsically unstructured
structure in solution (dispersion of backbone amides) ([3]; listed as C-terminal 62 residues): unstructured in solution

B4: 18 residue synthetic secretin peptide (OutD residues 691 to 708 inclusive) (peptide)
peptide: TYTFRQVQSSISDFYKPE
notes: secretin OutD, Dickeya dadantii, residues 691 to 708 inclusive; also called 18 residue secretin peptide; OutD^691–708; source: synthetic peptide, bought: Generon
Kd [4]: 55 ± 20 nM
stoichiometry N [4]: 1

B5: OutS: Dickeya dadantii type II secretion system pilotin, non-lipidated (residues 26 to 132), UniProt Q01567 (protein)
chain: CQTPAPVKNTASRSAASVPANEQISQLASLVAASKYLRVQCERSDLPDDGTILKTAVNVAVQKGWDTGRYQSLPQLSENLYQGLLKDGTPKATQCSSFNRTMTPFLDAMRTVR
binding to cognate secretin with reducing agent, pull-down (non-lipidated OutS; reducing agent, non-lipidated OutS with GST-OutD649–710): unable to bind the cognate secretin
binding to cognate secretin with reducing agent, two-hybrid (OutS; bacterial two-hybrid): unable to bind the cognate secretin

B6: OutS_L96A (protein, UniProt Q01567 21-133, looked up, variant L96A)
Pilotin OutS: B5 chain with L76A
effect of mutation on binding (secretin): substantial effect on binding

B7: OutS_Q114A (protein, UniProt Q01567 21-133, looked up, variant Q114A)
Pilotin OutS: B5 chain with Q94A
effect of mutation on binding (secretin): substantial effect on binding

B8: OutS_L100A (protein, UniProt Q01567 21-133, looked up, variant L100A)
Pilotin OutS: B5 chain with L80A
effect of mutation on binding (secretin): substantial effect on binding

B9: OutS_S49R (protein, UniProt Q01567 21-133, looked up, variant S49R)
Pilotin OutS: B5 chain with S29R
effect of mutation on binding (secretin): profound effect on binding
